Assays:
Test in all cases: EMSA; EMSA: 10 mM Tris-HCl pH 7.5, 50 mM NaCl, 0.5% NP-40, 4% glycerol, 1 mM MgCl2, 0.5 mM EDTA, 1 mM DTT, 20 min room temperature, 4 pmol oligo in 20 uL, gel at 4 C; NMR: 50 mM sodium phosphate pH 7.4, 1 mM DTT, 50 uM ZnCl2, 300 uM protein
[1] = biological target: A3G R215E (human, UniProt Q9HC16 1-384, R215E); conditions: protein: recombinant; tags: C-terminal Strep; label: 5' Alexa488; single strand
[2] = biological target: A3G R213E/R215E (human, UniProt Q9HC16 1-384, R213E;R215E); conditions: protein: recombinant; tags: C-terminal Strep; label: 5' Alexa488; single strand
[3] = biological target: A3G R313E/R320E (human, UniProt Q9HC16 1-384, R313E;R320E); conditions: protein: recombinant; tags: C-terminal Strep; label: 5' Alexa488; single strand
[4] = biological target: A3G R313E (human, UniProt Q9HC16 1-384, R313E); conditions: protein: recombinant; tags: C-terminal Strep; label: 5' Alexa488; single strand
[5] = biological target: A3G-S wild type (human, UniProt Q9HC16 1-384); conditions: protein: recombinant; tags: C-terminal Strep (STP cleaved by TEV); label: 5' Alexa488; single strand
[6] = biological target: A3G E67Q (human, UniProt Q9HC16 1-384, E67Q); conditions: protein: recombinant; tags: C-terminal Strep; label: 5' Alexa488; single strand
[7] = biological target: A3G E259Q (human, UniProt Q9HC16 1-384, E259Q); conditions: protein: recombinant; tags: C-terminal Strep; label: 5' Alexa488; single strand
[8] = biological target: A3G R374E/R376E (human, UniProt Q9HC16 1-384, R374E;R376E); conditions: protein: recombinant; tags: C-terminal Strep; label: 5' Alexa488; single strand

Measured: binding result

A3G R374E/R376E, sequence (Q9HC16 whole entry R374E/R376E): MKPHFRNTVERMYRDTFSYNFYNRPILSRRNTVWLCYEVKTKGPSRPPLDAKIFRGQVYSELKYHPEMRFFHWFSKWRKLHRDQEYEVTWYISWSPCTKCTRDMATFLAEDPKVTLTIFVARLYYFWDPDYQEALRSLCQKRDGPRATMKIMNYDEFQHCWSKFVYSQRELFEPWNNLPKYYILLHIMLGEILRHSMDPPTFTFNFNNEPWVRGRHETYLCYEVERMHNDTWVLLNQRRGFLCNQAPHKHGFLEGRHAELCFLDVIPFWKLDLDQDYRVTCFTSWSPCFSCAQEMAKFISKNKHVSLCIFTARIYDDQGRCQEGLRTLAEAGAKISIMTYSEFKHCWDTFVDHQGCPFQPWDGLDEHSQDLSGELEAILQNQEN
A3G R313E, sequence (Q9HC16 whole entry R313E): as the sequence (Q9HC16 whole entry R374E/R376E) above, with R313E, E374R, E376R counted along it
A3G E259Q, sequence (Q9HC16 whole entry E259Q): as the sequence (Q9HC16 whole entry R374E/R376E) above, with E259Q, E374R, E376R counted along it
A3G R213E/R215E, sequence (Q9HC16 whole entry R213E/R215E): as the sequence (Q9HC16 whole entry R374E/R376E) above, with R213E, R215E, E374R, E376R counted along it
A3G R313E/R320E, sequence (Q9HC16 whole entry R313E/R320E): as the sequence (Q9HC16 whole entry R374E/R376E) above, with R313E, R320E, E374R, E376R counted along it
A3G R215E, sequence (Q9HC16 whole entry R215E): as the sequence (Q9HC16 whole entry R374E/R376E) above, with R215E, E374R, E376R counted along it
A3G E67Q, sequence (Q9HC16 whole entry E67Q): as the sequence (Q9HC16 whole entry R374E/R376E) above, with E67Q, E374R, E376R counted along it
A3G-S wild type, sequence (Q9HC16 whole entry): as the sequence (Q9HC16 whole entry R374E/R376E) above, with E374R, E376R counted along it

B1: Alexa488 69-mer (ssDNA)
DNA: GAAGAGGAAGGGAAGAAAGAGAAAGGGAGACCCAAAGAGGAAAGGTGAGGAGGTTAATTTGTGTAAATA
binds: all assays above

Source: paper PMC4009770, “A Comparison of Two Single-Stranded DNA Binding Models by Mutational Analysis of APOBEC3G”
